US12066430
Values belong to the substance of their own block, whether it stands above or below them.

How the values were obtained:
Test in all cases: cell-based or functional assay
[1] = target: HLA-A2 on control CD80+HLA-A2+ K562 cells (no defined peptide) (human)
[2] = target: single-chain trimer (SCT) of HLA-A2/MART1 26-35(A27L), on cells (human)
[3] = target: single-chain trimer (SCT) of HLA-A2/NYESO1 157-165(C165V), on cells (human)
[4] = target: single-chain trimer (SCT) of HLA-A2 with the USP7 mutant 9-mer peptide …, on K562 cells (human)

percentage of trogocytosis^+ control CD80^+HLA-A2^+ K562 cells (NYESO1-K562 dilution experiment) [1]: 0.33%
percentage of trogocytosis^+ control cells (MART1-K562 dilution experiment) [1]: 0.41%
percentage of trogocytosis^+ MART1-K562 cells (one per 10,000 control cells) [2]: 1.6%
share of MART1-K562 among trogocytosis^- target cells (1:1 mixture, co-incubated with 1G4-Jurkat) [2]: 70.8%
percentage of trogocytosis^+ NYESO1-K562 target cells (diluted 1:10,000 in control cells) [3]: 70.8%
share of NYESO1-K562 among trogocytosis^+ target cells (1:1 mixture of NYESO1-K562 and MART1-K562, read by TCR dextramer staining) [3]: 95.1%
share of NYESO1-K562 among trogocytosis^- target cells (1:1 mixture, co-incubated with 1G4-Jurkat) [3]: 23.7%
trogocytosis (TCR transfer to K562) of CD8 co-expressing Jurkat cells relative to those only expressing TCR [3]: 3 fold
Substance: 1G4 TCR (A2/NYESO1 157-165-specific), expressed on cells

percentage of trogocytosis^+ control CD80^+HLA-A2^+ K562 cells (NYESO1-K562 dilution experiment) [1]: 0.35%
percentage of trogocytosis^+ control cells (MART1-K562 dilution experiment) [1]: 0.46%
percentage of trogocytosis^+ MART1-K562 cells (one per 10,000 control cells) [2]: 73.4%
share of MART1-K562 among trogocytosis^+ target cells (1:1 mixture, co-incubated with F5-Jurkat) [2]: 94.9%
share of MART1-K562 among trogocytosis^- target cells (1:1 mixture, co-incubated with F5-Jurkat) [2]: 18.8%
shift in LNGFR and TCR staining of K562 target cells [2]: 2 to 3 fold
shift in streptavidin staining of K562 target cells (transfer of biotinylated Jurkat membrane proteins) [2]: 3.5 fold
trogocytosis (TCR transfer to K562) of CD8 co-expressing Jurkat cells relative to those only expressing TCR [2]: 3 fold
percentage of trogocytosis^+ NYESO1-K562 target cells (diluted 1:10,000 in control cells) [3]: 0%
share of NYESO1-K562 among trogocytosis^- target cells (1:1 mixture, co-incubated with F5-Jurkat) [3]: 76.3%
Substance: F5 TCR (HLA-A2/MART1 26-35-specific), expressed on cells
Specific Cytotoxic Killing (Avg. % Specific Lysis), E:T 2 to 1 (Avg. % Specific Lysis) [4]: 0.0644
Specific Cytotoxic Killing (Avg. % Specific Lysis), E:T 4 to 1 (Avg. % Specific Lysis) [4]: 0.0366
Specific Cytotoxic Killing (Avg. % Specific Lysis), E:T 8 to 1 (Avg. % Specific Lysis) [4]: 0.0406
Specific Cytotoxic Killing (Avg. % Specific Lysis), E:T 16 to 1 (Avg. % Specific Lysis) [4]: 0
Specific Cytotoxic Killing (Avg. % Specific Lysis), E:T 2 to 1 (Avg. % Specific Lysis) [2]: 0.16
Specific Cytotoxic Killing (Avg. % Specific Lysis), E:T 4 to 1 (Avg. % Specific Lysis) [2]: 0.268
Specific Cytotoxic Killing (Avg. % Specific Lysis), E:T 8 to 1 (Avg. % Specific Lysis) [2]: 0.377
Specific Cytotoxic Killing (Avg. % Specific Lysis), E:T 16 to 1 (Avg. % Specific Lysis) [2]: 0.593
